According to patent publication US20070218064A1 (published 2007):

T1: recombinant human IL-23 (hrIL-23), produced at Centocor (human, UniProt P29460 23-328)
T1 sequence 1: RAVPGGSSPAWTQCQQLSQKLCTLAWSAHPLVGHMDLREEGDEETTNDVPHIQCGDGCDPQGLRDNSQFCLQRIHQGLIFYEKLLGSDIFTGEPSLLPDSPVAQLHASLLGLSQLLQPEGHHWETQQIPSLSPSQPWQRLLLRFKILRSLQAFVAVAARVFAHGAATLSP
T1 sequence 2: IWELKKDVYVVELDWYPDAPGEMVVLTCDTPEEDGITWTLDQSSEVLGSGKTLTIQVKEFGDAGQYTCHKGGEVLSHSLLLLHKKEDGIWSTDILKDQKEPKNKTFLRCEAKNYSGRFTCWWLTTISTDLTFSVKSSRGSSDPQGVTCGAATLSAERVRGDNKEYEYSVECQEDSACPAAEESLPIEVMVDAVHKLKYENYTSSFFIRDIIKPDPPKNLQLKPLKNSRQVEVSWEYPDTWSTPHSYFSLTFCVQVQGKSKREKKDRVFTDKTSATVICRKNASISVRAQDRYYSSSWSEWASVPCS


The binders below were run against T1, recombinant human IL-23 (hrIL-23), … (assay: cell-based or functional assay).

Row | Binder | Inhibition of IL-17 production, IC50 [µg/mL]
1 | mAb MOR05051 (antibody, IgG1, V domains shown) VH: QVELVESGGGLVQPGGSLRLSCAASGFTFSSFGMSWVRQAPGKGLEWVSITYASVKGRFTISRDNSKNTLYLQMNSLRAEDTAVYYCARYWGTPYLMQFDNWGQGTLVTVSS VL: DIALTQPASVSGSPGQSITISCTGTSSDVGGYNSVSWYQQHPGKAPKLMIYSVSSRPSGVSNRFSGSKSGNTASLTISGLQAEDEADYYCSSYDTNKPLVVFGGGTKLTVL | 0.0663
2 | mAb MOR05049 (antibody, IgG1, V domains shown) VH: QVELVESGGGLVQPGGSLRLSCAASGFTFSSFGMSWVRQAPGKGLEWVSITYASVKGRFTISRDNSKNTLYLQMNSLRAEDTAVYYCARYWGTPYLMQFDNWGQGTLVTVSS VL: DIALTQPASVSGSPGQSITISCTGTSSDVGGYNSVSWYQQHPGKAPKLMIYSVSSRPSGVSNRFSGSKSGNTASLTISGLQAEDEADYYCSSYDTNKPLVVFGGGTKLTVL | 0.0162
3 | mAb MOR05047 (antibody, IgG1, V domains shown) VH: QVELVESGGGLVQPGGSLRLSCAASGFTFSSFGMSWVRQAPGKGLEWVSNIGTYASVKGRFTISRDNSKNTLYLQMNSLRAEDTAVYYCARYWGTPYLMQFDNWGQGTLVTVSS VL: DIALTQPASVSGSPGQSITISCTGTSSDVGGYNSVSWYQQHPGKAPKLMIYSVSSRPSGVSNRFSGSKSGNTASLTISGLQAEDEADYYCSSYDTNKPLVVFGGGTKLTVL | 0.0234
4 | mAb MOR05058 (antibody, IgG1, V domains shown) VH: QVELVQSGAEVKKPGESLKISCKGSGYSFSNYWIGWVRQMPGKGLEWMGIIDPSNSYTNYSPSFQGQVTISADKSISTAYLQWSSLKASDTAMYYCARWYYKPFDVWGQGTLVTVSS VL: DIVLTQPPSVSGAPGQRVTISCTGSSSNIGSGYDVHWYQQLPGTAPKLLIYGNSKRPSGVPDRFSGSKSGTSASLAITGLQSEDEADYYCSSWTPVFGGGTKLTVL | 0.00285
5 | mAb MOR05059 (antibody, IgG1, V domains shown) VH: QVELVQSGAEVKKPGESLKISCKGSGYSFSNYWIGWVRQMPGKGLEWMGIIDPSNSYTNYSPSFQGQVTISADKSISTAYLQWSSLKASDTAMYYCARWYYKPFDVWGQGTLVTVSS VL: DIVLTQPPSVSGAPGQRVTISCTGSSSNIGSGYDVHWYQQLPGTAPKLLIYGNSKRPSGVPDRFSGSKSGTSASLAITGLQSEDEADYYCSWTSVVFGGGTKLTVL | 0.0106
6 | mAb MOR05042 (antibody, IgG1, V domains shown) VH: QVELVQSGAEVKKPGESLKISCKGSGYSFSNYWIGWVRQMPGKGLEWMGIIPSTYSPSFQGQVTISADKSISTAYLQWSSLKASDTAMYYCARWYYKPFDVWGQGTLVTVSS VL: DIVLTQPPSVSGAPGQRVTISCTGSSSNIGSGYDVHWYQQLPGTAPKLLIYGNSKRPSGVPDRFSGSKSGTSASLAITGLQSEDEADYYCSSWTPSSVVFGGGTKLTVL | 0.00127
7 | mAb MOR05043 (antibody, IgG1, V domains shown) VH: QVELVQSGAEVKKPGESLKISCKGSGYSFSNYWIGWVRQMPGKGLEWMGIPSTYSPSFQGQVTISADKSISTAYLQWSSLKASDTAMYYCARWYYKPFDVWGQGTLVTVSS VL: DIVLTQPPSVSGAPGQRVTISCTGSSSNIGSGYDVHWYQQLPGTAPKLLIYGNSKRPSGVPDRFSGSKSGTSASLAITGLQSEDEADYYCSSWTPSSVVFGGGTKLTVL | 0.0144
8 | mAb MOR05046 (antibody, IgG1, V domains shown) VH: QVELVQSGAEVKKPGESLKISCKGSGYSFSNYWIGWVRQMPGKGLEWMGIIDPSTYSPSFQGQVTISADKSISTAYLQWSSLKASDTAMYYCARWYYKPFDVWGQGTLVTVSS VL: DIVLTQPPSVSGAPGQRVTISCTGSSSNIGSGYDVHWYQQLPGTAPKLLIYGNSKRPSGVPDRFSGSKSGTSASLAITGLQSEDEADYYCSSWTPSSVVFGGGTKLTVL | 0.0428
9 | mAb MOR05038 (antibody, IgG1, V domains shown) VH: QVELVQSGAEVKKPGSSVKVSCKASGGTFSSNYISWVRQAPGQGLEWMGIGYAQKFQGRVTITADESTSTAYMELSSLRSEDTAVYYCARSKKGMYGGWTYPLMMFDLWGQGTLVTVSS VL: not shown | 0.0282
10 | mAb MOR05040 (antibody, IgG1, V domains shown) VH: QVELVQSGAEVKKPGSSVKVSCKASGGTFSSNYISWVRQAPGQGLEWMGAYAQKFQGRVTITADESTSTAYMELSSLRSEDTAVYYCARSKKGMYGGWTYPLMMFDLWGQGTLVTVSS VL: not shown | 0.00264

The remaining lines, values ahead:

Row | Inhibition of IL-17 production, IC50 [µg/mL] | Binder
11 | 0.00323 | mAb MOR05054 (antibody, IgG1, V domains shown) VH: QVELVESGGGLVQPGGSLRLSCAASGFTFSSFGMSWVRQAPGKGLEWVSITYASVKGRFTISRDNSKNTLYLQMNSLRAEDTAVYYCARYWGTPYLMQFDNWGQGTLVTVSS VL: DIALTQPASVSGSPGQSITISCTGTSSDVGGYNSVSWYQQHPGKAPKLMIYSVSSRPSGVSNRFSGSKSGNTASLTISGLQAEDEADYYCSSYDTNKPLVVFGGGTKLTVL
12 | 0.0162 | mAb MOR05048 (antibody, IgG1, V domains shown) VH: not shown VL: DIALTQPASVSGSPGQSITISCTGTSSDVGGYNSVSWYQQHPGKAPKLMIYSVSSRPSGVSNRFSGSKSGNTASLTISGLQAEDEADYYCSSYDTNKPLVVFGGGTKLTVL
13 | 0.0277 | mAb MOR05050 (antibody, IgG1, V domains shown) VH: not shown VL: DIALTQPASVSGSPGQSITISCTGTSSDVGGYNSVSWYQQHPGKAPKLMIYSVSSRPSGVSNRFSGSKSGNTASLTISGLQAEDEADYYCSSYDTNKPLVVFGGGTKLTVL
14 | 0.00493 | mAb MOR05053 (antibody, IgG1, V domains shown) VH: QVELVESGGGLVQPGGSLRLSCAASGFTFSSFGMSWVRQAPGKGLEWVSNITYYASVKGRFTISRDNSKNTLYLQMNSLRAEDTAVYYCARYWGTPYLMQFDNWGQGTLVTVSS VL: DIALTQPASVSGSPGQSITISCTGTSSDVGGYNSVSWYQQHPGKAPKLMIYSVSSRPSGVSNRFSGSKSGNTASLTISGLQAEDEADYYCSSYDTNKPLVVFGGGTKLTVL
15 | 0.0916 | mAb MOR05055 (antibody, IgG1, V domains shown) VH: QVELVESGGGLVQPGGSLRLSCAASGFTFSSFGMSWVRQAPGKGLEWVSNIGTYASVKGRFTISRDNSKNTLYLQMNSLRAEDTAVYYCARYWGTPYLMQFDNWGQGTLVTVSS VL: DIALTQPASVSGSPGQSITISCTGTSSDVGGYNSVSWYQQHPGKAPKLMIYSVSSRPSGVSNRFSGSKSGNTASLTISGLQAEDEADYYCSSYDTNKPLVVFGGGTKLTVL
16 | 0.0178 | mAb MOR05052 (antibody, IgG1, V domains shown) VH: QVELVESGGGLVQPGGSLRLSCAASGFTFSSFGMSWVRQAPGKGLEWVSITYASVKGRFTISRDNSKNTLYLQMNSLRAEDTAVYYCARYWGTPYLMQFDNWGQGTLVTVSS VL: DIALTQPASVSGSPGQSITISCTGTSSDVGGYNSVSWYQQHPGKAPKLMIYSVSSRPSGVSNRFSGSKSGNTASLTISGLQAEDEADYYCSSYDTNKPLVVFGGGTKLTVL
17 | 0.0491 | mAb MOR05029 (antibody, IgG1, V domains shown) VH: QVELVQSGAEVKKPGSSVKVSCKASGGTFSSNYISWVRQAPGQGLEWMGGIIPIFGHANYAQKFQGRVTITADESTSTAYMELSSLRSEDTAVYYCARSKKGMYGGWTYPLMMFDLWGQGTLVTVSS VL: DIVLTQSPATLSLSPGERATLSCRASQSVSSNYLAWYQQKPGQAPRLLIYYASRRATGVPARFSGSGSGTDFTLTISSLEPEDFAYYCQQTFGQGTKVEIK
18 | 0.0646 | mAb MOR05030 (antibody, IgG1, V domains shown) VH: QVELVQSGAEVKKPGSSVKVSCKASGGTFSSNYISWVRQAPGQGLEWMGGIIPIFGHANYAQKFQGRVTITADESTSTAYMELSSLRSEDTAVYYCARSKKGMYGGWTYPLMMFDLWGQGTLVTVSS VL: DIVLTQSPATLSLSPGERATLSCRASQSVSSNYLAWYQQKPGQAPRLLIYYASRRATGVPARFSGSGSGTDFTLTISSLEPEDFAYYCQQPFTFGQGTKVEIK
19 | 0.0014 | mAb MOR05045 (antibody, IgG1, V domains shown) VH: QVELVQSGAEVKKPGESLKISCKGSGYSFSNYWIGWVRQMPGKGLEWMGIIPSTYSPSFQGQVTISADKSISTAYLQWSSLKASDTAMYYCARWYYKPFDVWGQGTLVTVSS VL: DIVLTQPPSVSGAPGQRVTISCTGSSSNIGSGYDVHWYQQLPGTAPKLLIYGNSKRPSGVPDRFSGSKSGTSASLAITGLQSEDEADYYCSSWTPSSVVFGGGTKLTVL
20 | 0.00301 | mAb MOR05041 (antibody, IgG1, V domains shown) VH: QVELVQSGAEVKKPGESLKISCKGSGYSFSNYWIGWVRQMPGKGLEWMGIIPSTYSPSFQGQVTISADKSISTAYLQWSSLKASDTAMYYCARWYYKPFDVWGQGTLVTVSS VL: DIVLTQPPSVSGAPGQRVTISCTGSSSNIGSGYDVHWYQQLPGTAPKLLIYGNSKRPSGVPDRFSGSKSGTSASLAITGLQSEDEADYYCSSWTPSSVVFGGGTKLTVL
21 | 0.0141 | mAb MOR05044 (antibody, IgG1, V domains shown) VH: QVELVQSGAEVKKPGESLKISCKGSGYSFSNYWIGWVRQMPGKGLEWMGIIPSSTYSPSFQGQVTISADKSISTAYLQWSSLKASDTAMYYCARWYYKPFDVWGQGTLVTVSS VL: DIVLTQPPSVSGAPGQRVTISCTGSSSNIGSGYDVHWYQQLPGTAPKLLIYGNSKRPSGVPDRFSGSKSGTSASLAITGLQSEDEADYYCSSWTPSSVVFGGGTKLTVL
